Legend:
Test in all cases: receptor-Fc IP
VEGFR-1-Fc = target: T1, VEGFR-1-Fc (human, UniProt P17948 27-331)
T1 construct: domain: first three Ig domains; expressed in Drosophila S2 cells, purified on Protein A sepharose; also called VEGFR-1-Fc fusion protein; not shown: Fc fragment from the Signal-pIgPlus vector
Method: (§1) The binding assay procedure was identical to the immunoprecipitation using pentahistidine antibody described in Example 2, apart from the composition of the immunoprecipitation (IP) mixes. The IP mixes used for the receptor binding analysis were as follows: For VEGFR-1 binding assays, the IP mix was phosphate buffered saline (PBS) containing 1.5% BSA, 0.06% Tween 20, 3 μg/ml heparin and 400 ng/ml VEGFR-1-Fc fusion protein (100 μl of this IP mix was added to 200 μl of sample supernatant); for VEGFR-2 binding assays, the IP mix was 82% conditioned cell supernatant from 293T cells transiently expressing VEGFR-2-Fc fusion protein in mixture with 18% of a PBS solution that contained 5% BSA, 0.2% Tween 20, and 10 μg/ml heparin (250 μl of IP mix was added to 200 μl of sample supernatant); and for VEGFR-3 binding assays, the IP mix was 82% conditioned cell supernatant from 293T cells transiently expressing VEGFR-3-Fc fusion protein, 18% of PBS containing 5% BSA, 0.2% Tween 20, and 10 μg/ml heparin (250 μl of IP mix was added to 200 μl of sample supernatant).

VEGFR-2-Fc = target: T2, VEGFR-2-Fc (human, UniProt P35968 20-322)
T2 construct: domain: first 3 Ig domains; used as conditioned supernatant of 293T cells; also called VEGFR-2-Fc fusion protein; not shown: Fc fragment of the pIg vector
T2 sequence (P35968 20-322): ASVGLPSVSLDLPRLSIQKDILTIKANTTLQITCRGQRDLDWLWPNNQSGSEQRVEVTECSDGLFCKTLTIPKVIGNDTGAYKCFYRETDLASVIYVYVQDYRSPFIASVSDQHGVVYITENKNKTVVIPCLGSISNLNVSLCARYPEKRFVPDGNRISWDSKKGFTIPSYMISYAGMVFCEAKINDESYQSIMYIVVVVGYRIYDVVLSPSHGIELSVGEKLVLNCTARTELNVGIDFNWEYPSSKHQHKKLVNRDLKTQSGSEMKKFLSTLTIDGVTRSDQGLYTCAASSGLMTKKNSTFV
Method: as §1

VEGFR-3-Fc = target: T3, VEGFR-3-Fc (human, UniProt P35916 25-328)
T3 construct: domain: first three Ig domains; used as conditioned supernatant of 293T cells; also called VEGFR-3-Fc fusion protein; not shown: Fc fragment of the pIg vector
T3 sequence (looked up): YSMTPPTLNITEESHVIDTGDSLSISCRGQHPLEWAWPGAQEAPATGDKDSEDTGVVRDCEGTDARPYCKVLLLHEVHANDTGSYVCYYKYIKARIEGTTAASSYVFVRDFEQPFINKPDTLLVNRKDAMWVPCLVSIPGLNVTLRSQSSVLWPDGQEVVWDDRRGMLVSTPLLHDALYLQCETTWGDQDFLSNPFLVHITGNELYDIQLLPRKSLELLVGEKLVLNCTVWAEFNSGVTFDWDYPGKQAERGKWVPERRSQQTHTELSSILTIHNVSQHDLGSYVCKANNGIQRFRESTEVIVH
Method: as §1

Measured: binding result

T1 sequence (P17948 27-331): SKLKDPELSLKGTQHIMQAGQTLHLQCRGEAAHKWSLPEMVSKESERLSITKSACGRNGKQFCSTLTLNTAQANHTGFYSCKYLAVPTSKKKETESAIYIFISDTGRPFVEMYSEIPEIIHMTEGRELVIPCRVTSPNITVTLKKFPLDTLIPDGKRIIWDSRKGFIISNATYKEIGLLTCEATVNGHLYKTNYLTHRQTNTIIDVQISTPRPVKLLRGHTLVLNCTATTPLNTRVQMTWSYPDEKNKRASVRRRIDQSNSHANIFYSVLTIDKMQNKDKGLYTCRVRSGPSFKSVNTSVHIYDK

B1: 22-1 (ligand)
chain: AHYNTEILKSIDNEWRKTQCMPREVCIDVGKEFGVATNTFFKPPCVSVYRCGGCCNDEGLECVPTEESNITMQIMRIKPHQGQHIGEMSFLQHNKCECRPKKD
no binding: all assays above

— patent US20050267024A1 (published 2005)
